Reference: US6355245

Tests used:
[1] = target: human complement component C5 (purified) (human) (UniProt P01031); assay: plate-bound C3, C5 20 µg/ml with 5G1.1 Fab 20 µg/ml, bound C5 detected with N19/8; competitor C3
[2] = target: human complement component C5 (purified) (human) (UniProt P01031); assay: plate-bound C4, C5 20 µg/ml with 5G1.1 Fab 20 µg/ml, bound C5 detected with N19/8; competitor C4
[3] = target: human complement component C5 (purified) (human) (UniProt P01031); assay: cell-based or functional assay
[4] = target: human complement component C5 (purified) (human) (UniProt P01031); assay: solution equilibrium with C5, free antibody measured by ELISA (Friguet method), Scatchard analysis

Chain of UniProt P01031 (P01031 19-673 T389I limits assumed, chain 1 of 2): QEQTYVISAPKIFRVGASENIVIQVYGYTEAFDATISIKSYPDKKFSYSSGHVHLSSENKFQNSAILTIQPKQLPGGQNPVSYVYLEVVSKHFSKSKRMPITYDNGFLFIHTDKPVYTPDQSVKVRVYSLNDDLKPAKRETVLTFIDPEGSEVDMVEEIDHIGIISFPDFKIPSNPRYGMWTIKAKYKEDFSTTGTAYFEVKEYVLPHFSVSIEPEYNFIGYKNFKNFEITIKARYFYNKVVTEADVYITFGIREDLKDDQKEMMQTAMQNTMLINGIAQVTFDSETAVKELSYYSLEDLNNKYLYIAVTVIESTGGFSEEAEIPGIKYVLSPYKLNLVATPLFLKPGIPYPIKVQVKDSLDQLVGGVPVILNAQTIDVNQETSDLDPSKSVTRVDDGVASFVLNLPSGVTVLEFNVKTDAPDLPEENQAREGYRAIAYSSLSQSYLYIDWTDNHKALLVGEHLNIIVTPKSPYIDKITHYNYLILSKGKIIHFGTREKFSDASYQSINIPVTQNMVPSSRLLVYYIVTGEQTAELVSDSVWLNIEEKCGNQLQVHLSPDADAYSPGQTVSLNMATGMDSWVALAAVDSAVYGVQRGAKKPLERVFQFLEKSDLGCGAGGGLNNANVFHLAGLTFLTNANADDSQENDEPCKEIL
Chain of UniProt P01031 (P01031 678-1676 V802I limits assumed, chain 2 of 2): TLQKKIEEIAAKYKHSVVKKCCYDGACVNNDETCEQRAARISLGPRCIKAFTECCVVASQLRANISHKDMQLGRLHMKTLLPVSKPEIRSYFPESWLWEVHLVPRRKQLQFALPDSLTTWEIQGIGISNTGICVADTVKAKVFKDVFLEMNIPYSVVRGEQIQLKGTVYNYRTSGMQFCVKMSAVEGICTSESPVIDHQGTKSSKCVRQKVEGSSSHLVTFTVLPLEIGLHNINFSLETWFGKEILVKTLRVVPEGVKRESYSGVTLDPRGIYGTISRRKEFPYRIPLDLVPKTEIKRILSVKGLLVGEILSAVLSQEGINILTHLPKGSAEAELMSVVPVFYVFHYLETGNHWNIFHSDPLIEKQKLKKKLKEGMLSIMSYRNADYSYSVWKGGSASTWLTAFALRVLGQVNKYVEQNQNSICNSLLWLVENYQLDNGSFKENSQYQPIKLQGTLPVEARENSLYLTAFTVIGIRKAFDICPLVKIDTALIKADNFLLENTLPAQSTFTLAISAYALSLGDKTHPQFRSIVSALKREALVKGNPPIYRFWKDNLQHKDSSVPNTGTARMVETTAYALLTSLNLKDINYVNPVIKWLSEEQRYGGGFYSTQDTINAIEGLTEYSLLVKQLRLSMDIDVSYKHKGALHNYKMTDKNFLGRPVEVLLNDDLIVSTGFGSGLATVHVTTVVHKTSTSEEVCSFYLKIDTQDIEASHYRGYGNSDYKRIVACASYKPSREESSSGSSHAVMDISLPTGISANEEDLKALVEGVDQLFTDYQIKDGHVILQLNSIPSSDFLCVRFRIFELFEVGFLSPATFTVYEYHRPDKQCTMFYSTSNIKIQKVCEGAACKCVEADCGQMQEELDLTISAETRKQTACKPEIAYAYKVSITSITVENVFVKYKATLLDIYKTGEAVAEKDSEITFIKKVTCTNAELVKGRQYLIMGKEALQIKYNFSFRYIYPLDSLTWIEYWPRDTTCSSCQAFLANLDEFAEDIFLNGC

Substance | percent inhibition of C5 binding to C3 [1] | percent inhibition of C5 binding to C4 [2] | concentration that completely blocks C5a generation [3] | concentration that completely blocks C5b-9-mediated hemolysis in 20% human serum [3] | concentration that blocks serum hemolytic activity, 20% v/v human serum [3] | molar ratio at which serum hemolytic activity is blocked, 20% v/v human serum (molar ratio 5G1.1/C5) [3] | serum hemolytic activity (chicken erythrocyte hemolysis assay, human serum) (molar ratio antibody/C5) [3] | Kd [4] | blocking of complement hemolytic activity and of C5a generation [3]
5G1.1 Fab (derived from 5G1.1 by conventional papain digestion) | 60 to 90% | 60 to 90% | 0.06 to 0.08 µM | 0.06 to 0.08 µM | – | – | – | – | –
5G1.1 monoclonal antibody (native murine anti-human C5 mAb, produced by hybridoma 5G1.1, ATCC HB-11625) | – | – | 0.06 to 0.08 µM | 0.06 to 0.08 µM | 6.25 µg/mL | 0.5 | 0.5 | 0.03 nM | –
chimeric N19/8 Fab (N19-8 VL/human kappa constant region and N19-8 VH/human IgG1 Fd) | – | – | – | – | – | – | – | – | 50%
m5G1.1 scFv (non-humanized murine 5G1.1 scFv, 5G1.1M1scFv) | – | – | 0.15 µM | 0.15 µM | – | – | – | – | –
